In patent publication US20260015420A1 (CENTESSA PHARMACEUTICALS UK, published 2026):

T1: cynomolgus monkey CD47-Fc (cynomolgus monkey, UniProt Q08722 19-139 (human entry), limits assumed)
T1 construct: also called cCD47; cyno CD47-Fc; not shown: Fc part
T1 chain: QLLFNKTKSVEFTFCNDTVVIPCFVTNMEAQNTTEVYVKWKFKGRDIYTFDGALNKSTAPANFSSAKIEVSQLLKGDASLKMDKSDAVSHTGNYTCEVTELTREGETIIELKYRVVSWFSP

T2: cynomolgus monkey CD47 on cyno CD47-transfected CHO-K1 cells (cynomolgus monkey, UniProt Q08722 19-323 (human entry))
T2 construct: CHO-K1 cells stably transfected with cyno CD47 full-length cDNA; also called cyno CD47+ cells; cyno CD47+CHO-K1
T2 chain: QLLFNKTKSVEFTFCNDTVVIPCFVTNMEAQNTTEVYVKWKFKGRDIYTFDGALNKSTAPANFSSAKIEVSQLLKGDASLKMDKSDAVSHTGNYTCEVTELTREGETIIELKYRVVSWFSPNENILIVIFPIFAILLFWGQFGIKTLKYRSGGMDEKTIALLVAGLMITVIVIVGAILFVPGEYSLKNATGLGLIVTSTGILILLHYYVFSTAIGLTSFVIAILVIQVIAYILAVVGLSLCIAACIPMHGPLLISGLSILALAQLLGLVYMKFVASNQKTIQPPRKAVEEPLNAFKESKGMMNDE


Tests used:
human CD47-Fc [1] = target: T3, human CD47-Fc (human, UniProt Q08722 19-139); assay: direct ELISA, coated human CD47-Fc, OD450
T3 construct: also called hCD47; human CD47-Fc protein; not shown: Fc part

[2] = target: T1, cynomolgus monkey CD47-Fc; assay: direct ELISA, coated cyno CD47-Fc, OD450
Experimental: (§1) To coat ELISA plates sold under the name Greiner Bio-One High Binding ELISA plates, target proteins were diluted to 1 μg/ml in carbonate buffer and added at 100 μl per well, at 4° C., o/n. Coated plates were washed 3× with PBS pH7.4, blocked with 1% BSA in PBS (380 μl/well) for 1 hr at RT, then washed 3× with PBS-non-ionic surfactant sold under the trademark Tween® 20 (PBST). CD47 antibodies (100 μl/well; diluted in PBST) were then added and then incubated 1 hr at RT. Plates were then washed 3× with PBST and goat anti-human kappa chain-HRP added (100 μl/well) at RT, for 1 hr. Plates were then washed 3× with PBST and twice with PBS before the addition of 100 μl TMB per well. Reactions were stopped by adding 100 μl 2M H₂SO₄/well and OD was read on a plate reader at 450 nm.

human CD47-Fc [3] = target: T3, human CD47-Fc; assay: HTRF epitope competition; competitor Tb-labelled h5F9G4 IgG1 on biotinylated human CD47-Fc
Target sequence in this assay (Q08722 19-139 limits assumed): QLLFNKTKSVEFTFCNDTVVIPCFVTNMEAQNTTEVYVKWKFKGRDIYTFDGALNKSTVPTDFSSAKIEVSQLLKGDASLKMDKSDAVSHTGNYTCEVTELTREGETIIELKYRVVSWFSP

[4] = target: T2, cynomolgus monkey CD47 on cyno …; assay: flow cytometry, CHO-K1 cells transfected with cyno CD47, MFI
Experimental: IgGs were tested at concentrations ranging from 24-100,000 ng/ml.
Antibodies shown to retain binding to CD47 by ELISA were analysed for concentration-dependent binding at the cell surface via flow cytometry. CHO-K1 cells were stably transfected with either human or cyno CD47 full-length cDNAs.

human CD47-Fc [5] = target: T3, human CD47-Fc; assay: direct ELISA, coated human CD47-Fc, OD450; remark: listed apart in the source
Target sequence in this assay (Q08722 19-139 limits assumed): as above
Experimental: as §1

Binder	binding result (human CD47-Fc [1])	binding result [2]	IC50 (human CD47-Fc [3]) [µg/mL]	other results
A-H3, human IgG1null (antibody, V domains shown, IgG1null; also called Clone A-H3) VH: EVQLVQSGAEVKKPGESLKISCKGSGYSFTNYNIHWVRQMPGKGLEWMGTIYPGNSDTSYNPSFQGQVTISADKSISTAYLQWSSLKASDTAMYYCARGGVRAMDYWGQGTLVTVSS VL: DIVMTQSPLSLPVTPGEPASISCRSSQSLLHSKGNTYLGWYLQKPGQSPQLLIYKGSNRFSGVPDRFSGSGSGTDFTLKISRVEAEDVGVYYCMQASQVPYTFGQGTKLEIK	binds	binds		
VH1.12/VL1.8, human IgG1null (antibody, V domains shown, IgG1null; also called VH1.12/VL8) VH: QVQLVQSGAEVKKPGASVKVSCKASGYTFTNYAMHWVRQAPGQRLEWMGTIYPGNDNTKYNQKFQGRVTITADTSASTAYMELSSLRSEDTAVYYCARGGFRAMDYWGQGTLVTVSS VL: DIVMTQSPLSLPVTPGEPASISCRSSQSLLHSNAYNYLGWYLQKPGQSPQLLIYKGSNRFSGVPDRFSGSGSGTDFTLKISRVEAEDVGVYYCMQASHVPYTFGQGTKLEIK			16.3	
B-D2, human IgG1null (antibody, V domains shown, IgG1null; also called Clone B-D2) VH: EVQLVQSGAEVKKPGESLKISCKGSGYSFTNYNIHWVRQMPGKGLEWMGTIYPGNSDTRYNPSFQGQVTISADKSISTAYLQWSSLKASDTAMYYCARGGERAMDYWGQGTLVTVSS VL: DIVMTQSPLSLPVTPGEPASISCRSSQSLLHSNGNTYLGWYLQKPGQSPQLLIYKGSNRFSGVPDRFSGSGSGTDFTLKISRVEAEDVGVYYCFQASQVPYTFGQGTKLEIK	binds	binds		
E-C5, human IgG1null (antibody, V domains shown, IgG1null; also called Clone E-C5) VH: EVQLVQSGAEVKKPGESLKISCKGSGYSFTNYNIHWVRQMPGKGLEWMGTIYPGDSDTSYNPKFQGQVTISADKSISTAYLQWSSLKASDTAMYYCARGGYRAQDYWGQGTLVTVSS VL: DIVMTQSPLSLPVTPGEPASISCRSSQSLLHSNGNTYLGWYLQKPGQSPQLLIYKGSNRFSGVPDRFSGSGSGTDFTLKISRVEAEDVGVYYCMQASHVPYTFGQGTKLEIK	binds	binds		
C-D5, human IgG1null (antibody, V domains shown, IgG1null; also called Clone C-D5) VH: EVQLVQSGAEVKKPGESLKISCKGSGYSFTNYNIHWVRQMPGKGLEWMGTIYPGDSDTRYNPKFQGQVTISADKSISTAYLQWSSLKASDTAMYYCARGGIRAMDYWGQGTLVTVSS VL: DIVMTQSPLSLPVTPGEPASISCRSSQSLLHSNYNTYLGWYLQKPGQSPQLLIYKGSNRFSGVPDRFSGSGSGTDFTLKISRVEAEDVGVYYCFQGSQTPYTFGQGTKLEIK	binds	binds		
E-D6, human IgG1null (antibody, V domains shown, IgG1null; also called Clone E-D6) VH: EVQLVQSGAEVKKPGESLKISCKGSGYSFTNYNIHWVRQMPGKGLEWMGTIYPGDSDTSYNPKFQGQVTISADKSISTAYLQWSSLKASDTAMYYCARGGYRAEDYWGQGTLVTVSS VL: DIVMTQSPLSLPVTPGEPASISCRSSQSLLHSNGNTYLGWYLQKPGQSPQLLIYKGSNRFSGVPDRFSGSGSGTDFTLKISRVEAEDVGVYYCMQGSHVPYTFGQGTKLEIK	binds	binds		
VH1.1/VL1.6, human IgG1null (antibody, V domains shown, cf. claim 50); IgG1null; also called Clone VH1.1/VL1.6) VH: QVQLVQSGAEVKKPGASVKVSCKASGYTFTNYAMHWVRQAPGQRLEWMGTIYPGNDDTKYNQKFQGRVTITADTSASTAYMELSSLRSEDTAVYYCARGGYRAEDYWGQGTLVTVSS VL: DIVMTQSPLSLPVTPGEPASISCRSSQSLLHSNANTYLGWYLQKPGQSPQLLIYKGSNRFSGVPDRFSGSGSGTDFTLKISRVEAEDVGVYYCFQASHVPYTFGQGTKLEIK			6.96	
VH1.9/VL1.6, human IgG1null (antibody, V domains shown, IgG1null) VH: QVQLVQSGAEVKKPGASVKVSCKASGYTFTNYAMHWVRQAPGQRLEWMGTIYPGNDDTKYSQKFQGRVTITADTSASTAYMELSSLRSEDTAVYYCARGGYRAEDYWGQGTLVTVSS VL: DIVMTQSPLSLPVTPGEPASISCRSSQSLLHSNANTYLGWYLQKPGQSPQLLIYKGSNRFSGVPDRFSGSGSGTDFTLKISRVEAEDVGVYYCFQASHVPYTFGQGTKLEIK			11.1	

Now from value to binder, other results behind:

binding result (human CD47-Fc [1])	binding result [2]	IC50 (human CD47-Fc [3]) [µg/mL]	Binder	other results
		9.53	VH1.7/VL1.5, human IgG1null (antibody, V domains shown, VH assembled as for m35; IgG1null; also called Clone VH1.7/VL1.5) VH: QVQLVQSGAEVKKPGASVKVSCKASGYTFTNYNIHWVRQAPGQRLEWMGTIYPGNDDTSYSQKFQGRVTITADTSASTAYMELSSLRSEDTAVYYCARGGFRAMDYWGQGTLVTVSS VL: DIVMTQSPLSLPVTPGEPASISCRSSQSLLHSNAYNYLGWYLQKPGQSPQLLIYKGSNRFSGVPDRFSGSGSGTDFTLKISRVEAEDVGVYYCFQASHVPYTFGQGTKLEIK	
		22.6	VH1.7/VL1.4, human IgG1null (antibody, V domains shown, VH assembled as for m35; IgG1null) VH: QVQLVQSGAEVKKPGASVKVSCKASGYTFTNYNIHWVRQAPGQRLEWMGTIYPGNDDTSYSQKFQGRVTITADTSASTAYMELSSLRSEDTAVYYCARGGFRAMDYWGQGTLVTVSS VL: DIVMTQSPLSLPVTPGEPASISCRSSQSLLHSNAYNYLGWYLQKPGQSPQLLIYKGSNRFSGVPDRFSGSGSGTDFTLKISRVEAEDVGVYYCFQASQVPYTFGQGTKLEIK	
binds	binds		B-A6, human IgG1null (antibody, V domains shown, IgG1null; also called Clone B-A6) VH: EVQLVQSGAEVKKPGESLKISCKGSGYSFTNYNIHWVRQMPGKGLEWMGTIYPGDSDTRYNQKFQGQVTISADKSISTAYLQWSSLKASDTAMYYCARGGIRAMDYWGQGTLVTVSS VL: DIVMTQSPLSLPVTPGEPASISCRSSQSLLHSNGNTYLGWYLQKPGQSPQLLIYKGSNRFSGVPDRFSGSGSGTDFTLKISRVEAEDVGVYYCFQGSHVPYIFGQGTKLEIK	
binds	binds		F-G3, human IgG1null (antibody, V domains shown, IgG1null; also called clone F-G3) VH: EVQLVQSGAEVKKPGESLKISCKGSGYSFTNYNIHWVRQMPGKGLEWMGTIYPGNSDTSYNHKFQGQVTISADKSISTAYLQWSSLKASDTAMYYCARGGNRAEDYWGQGTLVTVSS VL: DIVMTQSPLSLPVTPGEPASISCRSSQSLLHSNGNTYLGWYLQKPGQSPQLLIYKGSNRFSGVPDRFSGSGSGTDFTLKISRVEAEDVGVYYCMQASQVPYTFGQGTKLEIK	
		0.586	VH1.8/VL1.2, human IgG1null (antibody, V domains shown, IgG1null; also called Clone VH1.8/VL1.2) VH: QVQLVQSGAEVKKPGASVKVSCKASGYTFTNYAMHWVRQAPGQRLEWMGTIYPGNDDTKYNQKFQGRVTITADTSASTAYMELSSLRSEDTAVYYCARGGFRAMDYWGQGTLVTVSS VL: DIVMTQSPLSLPVTPGEPASISCRSSQSLLHSNGNTYLGWYLQKPGQSPQLLIYKGSNRFSGVPDRFSGSGSGTDFTLKISRVEAEDVGVYYCFQASQVPYTFGQGTKLEIK	binding result [4]: binds; EC50 (read off the curve) (human CD47-Fc [5]): ~0.06 µg/mL
		14	VH1.6/VL1.6, human IgG1null (antibody, V domains shown, VH assembled as for m35; IgG1null) VH: QVQLVQSGAEVKKPGASVKVSCKASGYTFTNYAMHWVRQAPGQRLEWMGTIYPGNDDTSYSQKFQGRVTITADTSASTAYMELSSLRSEDTAVYYCARGGYRAEDYWGQGTLVTVSS VL: DIVMTQSPLSLPVTPGEPASISCRSSQSLLHSNANTYLGWYLQKPGQSPQLLIYKGSNRFSGVPDRFSGSGSGTDFTLKISRVEAEDVGVYYCFQASHVPYTFGQGTKLEIK	
		0.459	VH1.8/VL1.1, human IgG1null (antibody, V domains shown, IgG1null (L234A/L235A/G237A); also called Clone VH1.8/VL1.1) VH: QVQLVQSGAEVKKPGASVKVSCKASGYTFTNYAMHWVRQAPGQRLEWMGTIYPGNDDTKYNQKFQGRVTITADTSASTAYMELSSLRSEDTAVYYCARGGFRAMDYWGQGTLVTVSS VL: DIVMTQSPLSLPVTPGEPASISCRSSQSLLHSNGNTYLGWYLQKPGQSPQLLIYKGSNRFSGVPDRFSGSGSGTDFTLKISRVEAEDVGVYYCFQASHVPYTFGQGTKLEIK	binding result [4]: binds; EC50 (read off the curve) (human CD47-Fc [5]): ~0.06 µg/mL
		4.64	VH1.7/VL1.6, human IgG1null (antibody, V domains shown, VH assembled as for m35; IgG1null; also called Clone VH1.7/VL1.6) VH: QVQLVQSGAEVKKPGASVKVSCKASGYTFTNYNIHWVRQAPGQRLEWMGTIYPGNDDTSYSQKFQGRVTITADTSASTAYMELSSLRSEDTAVYYCARGGFRAMDYWGQGTLVTVSS VL: DIVMTQSPLSLPVTPGEPASISCRSSQSLLHSNANTYLGWYLQKPGQSPQLLIYKGSNRFSGVPDRFSGSGSGTDFTLKISRVEAEDVGVYYCFQASHVPYTFGQGTKLEIK	
binds	binds		D-C12, human IgG1null (antibody, V domains shown, IgG1null; also called Clone D-C12) VH: EVQLVQSGAEVKKPGESLKISCKGSGYSFTNYNIHWVRQMPGKGLEWMGTIYPGNSDTRYNPKFQGQVTISADKSISTAYLQWSSLKASDTAMYYCARGGFRAMDYWGQGTLVTVSS VL: DIVMTQSPLSLPVTPGEPASISCRSSQSLLHSNGNTYLGWYLQKPGQSPQLLIYKGSNRFSGVPDRFSGSGSGTDFTLKISRVEAEDVGVYYCMQGSHVPYTFGQGTKLEIK	
